In the supplement of paper PMC10567573:

B1: PLD5 (parent)
chain: WIVDKQHVYIGSAGLDWQSLGQMK

Variants of: B1
Experiment: protein stability index of a GFP-peptide fusion (GPS, HEK-293T) (PSI 1-6); higher = more stable
Conditions: c terminus: a fixed tail appended
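Further: lentivirally expressed fusions sorted by FACS into six bins by GFP to DsRed ratio, PSI derived from sequencing read proportions per bin multiplied by bin number.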

Point of comparison: WIVDKQHVYIGSAGLDWQSQGQMK [L20Q], protein stability index 1.54. Against it:
- WIVDKQHVYIGSAGLDRQSLGQMK [W17R] — higher, 1.9
- WIVDKQHVYIGSAGLDFQSLGQMK [W17F] — higher, 1.91
- WIVDKQHVYIGSAGLDMQSLGQMK [W17M] — lower, 1.38
- WIVDKQHVYIGSAGLDTQSLGQMK [W17T] — higher, 1.9
- WIVDKQHVYIGSAGLDAQSLGQMK [W17A] — higher, 1.97
- WIVDKQHVYIGSAGLDSQSLGQMK [W17S] — higher, 2.36
- WIVDKQHVYIGSAGLDYQSLGQMK [W17Y] — higher, 1.89
- WIVDKQHVYIGSAGLDEQSLGQMK [W17E] — higher, 2.1
- WIVDKQHVYIGSAGLDGQSLGQMK [W17G] — higher, 2.17
- WIVDKQHVYIGSAGLDCQSLGQMK [W17C] — higher, 1.73
- WIVDKQHVYIGSAGLDKQSLGQMK [W17K] — higher, 1.72
- WIVDKQHVYIGSAGLDDQSLGQMK [W17D] — higher, 1.94
- WIVDKQHVYIGSAGLDIQSLGQMK [W17I] — higher, 1.63
- WIVDKQHVYIGSAGLDNQSLGQMK [W17N] — higher, 2.17
- WIVDKQHVYIGSAGLDHQSLGQMK [W17H] — higher, 2.35
- WIVDKQHVYIGSAGLDLQSLGQMK [W17L] — higher, 1.64
- WIVDKQHVYIGSAGLDPQSLGQMK [W17P] — higher, 1.64
- WIVDKQHVYIGSAGLDQQSLGQMK [W17Q] — higher, 2.09
- WIVDKQHVYIGSAGLDVQSLGQMK [W17V] — higher, 2.24
- WIVDKQHVYIGSAGLDWQPLGQMK [S19P] — lower, 1.29
- WIVDKQHVYIGSAGLDWQMLGQMK [S19M] — higher, 1.7
- WIVDKQHVYIGSAGLDWQQLGQMK [S19Q] — higher, 1.9
- WIVDKQHVYIGSAGLDWQCLGQMK [S19C] — higher, 2.62
- WIVDKQHVYIGSAGLDWQWLGQMK [S19W] — higher, 2.5
- WIVDKQHVYIGSAGLDWQKLGQMK [S19K] — higher, 2.22
- WIVDKQHVYIGSAGLDWQDLGQMK [S19D] — higher, 1.9
- WIVDKQHVYIGSAGLDWQHLGQMK [S19H] — higher, 1.81
- WIVDKQHVYIGSAGLDWQALGQMK [S19A] — higher, 2.23
- WIVDKQHVYIGSAGLDWQNLGQMK [S19N] — lower, 1.45
- WIVDKQHVYIGSAGLDWQRLGQMK [S19R] — higher, 1.83
- WIVDKQHVYIGSAGLDWQELGQMK [S19E] — higher, 2.06
- WIVDKQHVYIGSAGLDWQFLGQMK [S19F] — higher, 2.34
- WIVDKQHVYIGSAGLDWQYLGQMK [S19Y] — higher, 1.91
- WIVDKQHVYIGSAGLDWQLLGQMK [S19L] — higher, 3.25
- WIVDKQHVYIGSAGLDWQTLGQMK [S19T] — higher, 1.96
- WIVDKQHVYIGSAGLDWQVLGQMK [S19V] — higher, 1.69
- WIVDKQHVYIGSAGLDWQSLKQMK [G21K] — the same, 1.54
- WIVDKQHVYIGSAGLDWQSLCQMK [G21C] — higher, 1.91
- WIVDKQHVYIGSAGLDWQSLSQMK [G21S] — lower, 1.52
- WIVDKQHVYIGSAGLDWQSLRQMK [G21R] — higher, 1.86
- WIVDKQHVYIGSAGLDWQSLLQMK [G21L] — higher, 2.88
- WIVDKQHVYIGSAGLDWQSLMQMK [G21M] — higher, 1.89
- WIVDKQHVYIGSAGLDWQSLAQMK [G21A] — higher, 2.17
- WIVDKQHVYIGSAGLDWQSLYQMK [G21Y] — higher, 1.72
- WIVDKQHVYIGSAGLDWQSLHQMK [G21H] — higher, 2.52
- WIVDKQHVYIGSAGLDWQSLDQMK [G21D] — higher, 2
- WIVDKQHVYIGSAGLDWQSLPQMK [G21P] — higher, 1.67
- WIVDKQHVYIGSAGLDWQSLWQMK [G21W] — higher, 1.68
- WIVDKQHVYIGSAGLDWQSLQQMK [G21Q] — higher, 1.75
- WIVDKQHVYIGSAGLDWQSLVQMK [G21V] — higher, 2.13
- WIVDKQHVYIGSAGLDWQSLEQMK [G21E] — lower, 1.25
- WIVDKQHVYIGSAGLDWQSLTQMK [G21T] — higher, 1.86
- WIVDKQHVYIGSAGLDWQSLNQMK [G21N] — higher, 2.41
- WIVDKQHVYIGSAGLDWQSLGQAK [M23A] — higher, 1.55
- WIVDKQHVYIGSAGLDWQSLGQHK [M23H] — lower, 1.32
- WIVDKQHVYIGSAGLDWQSLGQYK [M23Y] — higher, 1.84
- WIVDKQHVYIGSAGLDWQSLGQTK [M23T] — higher, 2.06
- WIVDKQHVYIGSAGLDWQSLGQWK [M23W] — higher, 2.19
- WIVDKQHVYIGSAGLDWQSLGQLK [M23L] — higher, 2.12
- WIVDKQHVYIGSAGLDWQSLGQKK [M23K] — higher, 1.69
- WIVDKQHVYIGSAGLDWQSLGQNK [M23N] — higher, 1.9
- WIVDKQHVYIGSAGLDWQSLGQSK [M23S] — higher, 1.74
- WIVDKQHVYIGSAGLDWQSLGQDK [M23D] — higher, 2.15
- WIVDKQHVYIGSAGLDWQSLGQEK [M23E] — higher, 2.11
- WIVDKQHVYIGSAGLDWQSLGQQK [M23Q] — higher, 2.09
- WIVDKQHVYIGSAGLDWQSLGQVK [M23V] — lower, 1.29
- WIVDKQHVYIGSAGLDWQSLGQFK [M23F] — higher, 1.69
- WIVDKQHVYIGSAGLDWQSLGQCK [M23C] — higher, 2.21
- WIVDKQHVYIGSAGLDWQSLGQRK [M23R] — higher, 1.97
- WIVDKQHVYIGSAGLDWQSLGQPK [M23P] — higher, 1.85
- WIVDKQHVYIGSAGLDWQSLGQIK [M23I] — higher, 2.15
- WIVDKQHVYIGSAGLDWQSLGQGK [M23G] — higher, 1.9
- WIVDKQHVYIGSAGLIWQSLGQMK [D16I] — higher, 1.94
- WIVDKQHVYIGSAGLGWQSLGQMK [D16G] — higher, 2.06
- WIVDKQHVYIGSAGLQWQSLGQMK [D16Q] — lower, 1.16
- WIVDKQHVYIGSAGLNWQSLGQMK [D16N] — higher, 2.33
- WIVDKQHVYIGSAGLFWQSLGQMK [D16F] — higher, 2.16
- WIVDKQHVYIGSAGLEWQSLGQMK [D16E] — higher, 2.32
- WIVDKQHVYIGSAGLRWQSLGQMK [D16R] — lower, 1.4
- WIVDKQHVYIGSAGLWWQSLGQMK [D16W] — higher, 3.03
- WIVDKQHVYIGSAGLAWQSLGQMK [D16A] — higher, 3.8
- WIVDKQHVYIGSAGLSWQSLGQMK [D16S] — higher, 2.26
- WIVDKQHVYIGSAGLYWQSLGQMK [D16Y] — higher, 2.52
- WIVDKQHVYIGSAGLKWQSLGQMK [D16K] — higher, 1.68
- WIVDKQHVYIGSAGLTWQSLGQMK [D16T] — higher, 3.02
- WIVDKQHVYIGSAGLMWQSLGQMK [D16M] — higher, 2.83
- WIVDKQHVYIGSAGLHWQSLGQMK [D16H] — lower, 1.44
- WIVDKQHVYIGSAGLPWQSLGQMK [D16P] — higher, 1.79
- WIVDKQHVYIGSAGLLWQSLGQMK [D16L] — higher, 2.44
- WIVDKQHVYIGSAGLCWQSLGQMK [D16C] — higher, 2.39
- WIVDKQHVYIGSAGLDWQSYGQMK [L20Y] — higher, 1.97
- WIVDKQHVYIGSAGLDWQSRGQMK [L20R] — higher, 2.13
- WIVDKQHVYIGSAGLDWQSCGQMK [L20C] — higher, 2.05
